Test [1] deals with T1, Human full length B7-H3 (human, UniProt Q5ZPR3 29-534).
T1 construct: On 3T12 fibroblasts expressing full length human B7-H3 or on NCI-H1650 cells; signal peptide residues 1-28 stated; also called huB7-H3; CD276
T1 sequence: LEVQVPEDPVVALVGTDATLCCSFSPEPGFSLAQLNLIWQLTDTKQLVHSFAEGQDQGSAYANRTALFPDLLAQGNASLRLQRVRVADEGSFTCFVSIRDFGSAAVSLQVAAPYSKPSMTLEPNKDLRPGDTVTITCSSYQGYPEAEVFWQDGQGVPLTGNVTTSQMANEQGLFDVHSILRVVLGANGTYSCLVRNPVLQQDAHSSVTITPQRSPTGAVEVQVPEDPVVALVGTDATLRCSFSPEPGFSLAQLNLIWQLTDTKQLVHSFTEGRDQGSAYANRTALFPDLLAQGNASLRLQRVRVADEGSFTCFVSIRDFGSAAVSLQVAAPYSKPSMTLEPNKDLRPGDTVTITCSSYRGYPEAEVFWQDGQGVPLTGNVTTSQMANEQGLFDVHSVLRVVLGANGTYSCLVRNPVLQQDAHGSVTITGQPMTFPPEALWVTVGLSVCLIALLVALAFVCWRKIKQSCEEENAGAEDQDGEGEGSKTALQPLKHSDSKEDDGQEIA
The test can be described thus: FACS, cell surface human B7-H3 (as Example 6). On the procedure:
(§1) Cells were harvested from flasks when approximately 80% confluent using Gibco® Cell Dissociation Buffer. Cells were washed once in PBS/1% FBS (FACS buffer) then resuspended at 2.5×10⁶ cells/mL in FACS buffer. 100 μL of cells/well were added to a round bottom 96-well plate. 10 μL of a 10× concentration of mAb/ADC (final concentrations are indicated the figures). Wells were washed twice with FACS buffer and resuspended in 50 μL of secondary Ab (AlexaFluor 488) diluted in FACS buffer. The plate was incubated at 4° C. for one hour and washed twice with FACS buffer. Cells were resuspended in 100 μL of PBS/1% formaldehyde and analyzed on a Becton Dickinson LSRII flow cytometer. Data was analyzed using WinList flow cytometry analysis software.
Nine anti-B7-H3 chimeric antibodies were conjugated to the Bcl-xL inhibiting (Bcl-xLi) synthon CZ (Example 2.1) using conjugation Method A described below. The resulting ADCs (anti-B7-H3 antibodies conjugated to synthon CZ) were tested for binding to cell surface human B7-H3 by FACS (as described in Example 6) and for cell cytotoxicity in cell lines expressing B7-H3. […] Table 6 provides cell surface binding and cytotoxicity activity of anti-B7-H3 chimera ADCs against breast cancer cell HCC38 expressing human B7-H3.

Test [2] has as its target T2, Human B7-H3-ECD (His tag) (human, UniProt Q5ZPR3 29-461).
T2 construct: SPR analyte; also called huB7-H3; soluble ECD of human B7-H3
T2 sequence: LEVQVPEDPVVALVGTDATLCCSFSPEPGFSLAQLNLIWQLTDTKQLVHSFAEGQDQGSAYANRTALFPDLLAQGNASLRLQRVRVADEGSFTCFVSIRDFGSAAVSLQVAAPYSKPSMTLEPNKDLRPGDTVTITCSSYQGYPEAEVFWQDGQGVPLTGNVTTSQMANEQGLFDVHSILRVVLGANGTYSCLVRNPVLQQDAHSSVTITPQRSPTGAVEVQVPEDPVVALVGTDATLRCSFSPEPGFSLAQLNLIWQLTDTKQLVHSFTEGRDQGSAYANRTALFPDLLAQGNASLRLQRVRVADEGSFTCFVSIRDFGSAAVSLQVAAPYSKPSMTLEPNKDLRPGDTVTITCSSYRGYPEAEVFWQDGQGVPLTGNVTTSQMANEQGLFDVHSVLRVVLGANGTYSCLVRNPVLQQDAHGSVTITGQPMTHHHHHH
In words: SPR Biacore, naked mAb. An excerpt:
(§2) Biacore T200 SPR instruments were used to measure the binding kinetics of human B7-H3 (analyte) binding to various mAbs (ligands). The assay format was Fc-based capture via immobilized anti-mouse (Fc) (Pierce 31170) or immobilized anti-human (Fc) (Pierce 31125). A standard amine coupling protocol was employed to immobilize the capture reagents via primary amines to the carboxy-methyl (CM) dextran surface of CM5 sensorchips (Biacore); capture antibodies were coupled to a level of approximately 5000RU. For binding kinetic measurements the assay buffer was HBS-EP+ (Biacore): 10 mM Hepes, pH7.4, 150 mM NaCl, 3 mM EDTA, 0.05% polysorbate 20. During the assay, all measurements were referenced against the capture surface alone. Each assay cycle consisted of the following steps: 1) Capture of ligand to approximately 50RU; 2) Analyte injection over both reference and test surface, 240 μL at 80 μL/min, after which the dissociation was monitored for 900 seconds at 80 μL/min; 3) Regeneration of capture surface with low pH glycine. […] Data were processed and fit to a 1:1 binding model using Biacore T200 Evaluation Software to determine the binding kinetic rate constants, kₐ (on-rate) and kd (off-rate), and the equilibrium dissociation constant (affinity, KD).
These variants were further characterized for binding by SPR and as ADCs conjugated to the Bcl-xL inhibitor synthon (linker warhead) CZ. […] An ADC comprising chAb3 conjugated to synthon CZ was used as a control.

Test [3] deals with T2, Human B7-H3-ECD (His tag). The test can be described thus: SPR Biacore, naked mAb.
From the text: as §2
(§3) The parental chAb18 from which the variants were derived was also tested as a comparator.
This is another data set of the same source. Background: SPR reads the build-up and loss of mass on a sensor chip optically.

Test [4] has as its target T1, Human full length B7-H3. In words: FACS, NCI-H1650 cells. On the procedure:
To generate purified chimeric antibodies, expression vectors were transiently transfected into HEK293 6E suspension cell cultures in a ratio of 60% to 40% light to heavy chain construct. 1 mg/ml of polyethylenimine (PEI) or 2.6 μL/mL of Expifectamine was used to transfect the cells. Cell supernatants were harvested after five days in shaking flasks, spun down to pellet cells, and filtered through 0.22 μm filters to separate IgG from culture contaminants. Antibody-containing supernatants were purified on Akta Pure using protein A mAb SelectSure. Columns were equilibrated in PBS pH 7.4, supernatants were then passed through the column and a wash was performed with PBS pH 7.4. IgG were eluted with 0.1 M acetic acid pH 3.5 and collected in several aliquots. Fractions containing IgG were pooled and dialyzed in PBS overnight at 4° C.
as §1
(In general: In flow cytometry, cells or beads pass a laser one at a time.)

Test [5] concerns the target T1, Human full length B7-H3. In words: FACS (Example 6 method). On the procedure: as §1, §3

Substitutions are numbered along the chain they refer to. Where two headings read alike, the source gives them in different places.

B1: chAb11-CZ (antibody, IgG1, V domains shown)
VH: EVKLVESGGGLVQPGGSLRLSCATSGFTFTNYYMSWVRQPPGKALEWLGFIRNKANDYTTEYSASVKGRFTISRDNSQSILYLQMNTLRAEDSATYYCARESPGNPFAYWGQGTLVTVSA
VL: DIVMTQSPSSLTVTAGEKVTMTCKSSQSLLNSGTQKNFLTWYQQKPGQPPKLLIYWASTRESGVPDRFTGSGSGTDFTLTISSVQAEDLAVYFCQNDYIYPLTFGAGTKLELK
modifications: synthon CZ on reduced interchain Cys
In turn, B1 gave an EC50 with Human full length B7-H3 [1] of 1120 pM.

B2: huAb3v1 (antibody, V domains shown)
VH: EVQLVQSGAEVKKPGSSVKVSCKASGYTFSSYWMHWVRQAPGQGLEWMGLIHPDSGSTNYNEMFKNRVTITADKSTSTAYMELSSLRSEDTAVYYCARGGRLYFDYWGQGTTVTVSS
VL: DIVMTQSPLSLPVTPGEPASISCRSSQSLVHSNGDTYLRWYLQKPGQSPQLLIYKVSNRFSGVPDRFSGSGSGTDFTLKISRVEAEDVGVYYCSQSTHVPYTFGGGTKVEIK
notes: humanized IgG
As for B2, binding in test [2] was characterised by a dissociation constant (Kd) of 520 pM.

B3: huAb3v5 (antibody, V domains shown)
VH: B2 VH with M48I, V68A, I70L, A72V, K74R, R98G
VL: B2 VL with I2V
notes: humanized IgG
Take B3: the dissociation constant (Kd) in test [2] came out at 230 pM.

B4: huAb3v6 (antibody, V domains shown)
VH: B2 VH with M48I, V68A, I70L, A72V, K74R, M81V, Y95F, R98G
VL: B2 VL with I2V
notes: humanized IgG
In test [2], B4 yielded a Kd of 200 pM.

B5: huAb3v3 (antibody, V domains shown)
VH: B2 VH with M48I, V68A, I70L, A72V, K74R, M81V, Y95F, R98G
VL: B2 VL with I2V, Y92F
notes: humanized IgG
For the molecule B5, the Kd in test [2] is 230 pM.

B6: huAb3v4 (antibody, V domains shown)
VH: B2 VH
VL: B2 VL with I2V
notes: humanized IgG
B6: the equilibrium dissociation constant (Kd) in test [2] was 570 pM.

B7: chAb4-CZ (antibody, IgG1, V domains shown)
VH: QVQLQQPGAELVKPGASVKLSCKASGYSFTSYWMHWVKQRPGQGLEWIGMIHPNSGSNNYNEKFKSKATLTVDKSSNTAYMQLSSLTSEDSAVYYCARRLGLHFDYWGQGTTLTVSS
VL: DIVMTQSQKFMSTPVGDRVSITCKASQNVGTAVAWYQQKPGQSPKLLIYSASNRYTGVPDRFTGSGSGTDFTLTISNMQSEDLADYFCQQYSSYPYTFGGGTKLEIK
modifications: synthon CZ on reduced interchain Cys
In the test with Human full length B7-H3 [1], B7 yielded an EC50 of 540 pM.

B8: chAb18 (antibody, IgG1, V domains shown)
VH: QVQLQQSAAELARPGASVKMSCKASGYSFTSYTIHWVKQRPGQGLEWIGYINPNSRNTDYNQKFKDETTLTADRSSSTAYMQLISLTSEDSAVYYCARYSGSTPYWYFDVWGAGTTVTVSS
VL: QIVLTQSPAILSASPGEKVTMTCRASSSVSYMNWYQQKPGSSPKPWIYATSNLASGVPARFSVSVSGTSHSLTISRVEAEDAATYYCQQWSSNPLTFGAGTKLELK
notes: chimeric, huIgG1/k
B8: the Kd in test [3] amounted to 170 pM. Moreover, the 50% effective concentration (EC50) with Human full length B7-H3 [4] is 1140 pM.

B9: chAb18-CZ (antibody, IgG1, V domains shown)
VH: B8 VH
VL: B8 VL
modifications: synthon CZ on reduced interchain Cys
For the molecule B9, the figures for the EC50 with Human full length B7-H3 [1] and with Human full length B7-H3 [5] were 1780 pM and 1140 pM, respectively.

B10: chAb2-CZ (antibody, IgG1, V domains shown)
VH: QVQLQQPGAELVKPGASVKLSCKASGYTFTSYWMHWVKQRPGQGLEWIGMIHPDSGTTNYNEKFRSKATLTVDKSSSTAYMQLSSLTSEDSAVYYCAVYYGSTYWYFDVWGTGTTVTVSS
VL: DVVMTQTPLSLPVSLGDQAYISCRSSQSLVHINGNTYLHWYRQKPGQSPKLLIYKVSNRFSGVPDRFSGSGSGTDFTLKISRVEAEDLGVYFCSQSTHFPFTFGSGTKLEIK
modifications: synthon CZ on reduced interchain Cys
B10 displayed an EC50 with Human full length B7-H3 [1] of 2600 pM.

B11: chAb6-CZ (antibody, IgG1, V domains shown)
VH: QVQLQQSGAELMKPGASVKISCKATGYTFSRYWIEWVKQRPGHGLEWIGEILPGSGSTNYNEKFKGKATFTADTSSNTAYMQVSSLTSEDSAVHYCARRGYGYVPYALDYWGQGTSVTVSS
VL: EIQMTQTTSSLSASLGDRVTISCRASQDISNSLNWYQQKPDGTVNLLIYYTSRLYSGVPSRFSGSGSGTDYSLTISNLEQEDIATYFCQQGNTLPYTFGGGTKLEIK
modifications: synthon CZ on reduced interchain Cys
In the case of B11, in the test with Human full length B7-H3 [1], the EC50 came to 560 pM.

B12: chAb16-CZ (antibody, IgG1, V domains shown)
VH: EVKLLESGGGLVQPGGSLKLSCAASGFDFSRYWMSWVRQAPGKGLEWIGEINPDSSTINYTPSLKDKFIISRDNAKNTLYLQMSKVRSEDTALYYCARPGFGNYIYAMDYWGQGTSVTVSS
VL: B11 VL with E1D, S22N, S32F, N45K, S56L, Y96P
modifications: synthon CZ on reduced interchain Cys
In turn, B12 returned an EC50 in the test with Human full length B7-H3 [1] of 620 pM.

B13: chAb14 (antibody, IgG1, V domains shown)
VH: EVKLVESGGGLVKPGGSLKLSCAASGFTFSSYGMSWVRQTPEKRLEWVATISGGGTNTYYPDSVEGRFTISRDNAKNFLYLQMSSLRSEDTALYYCARHYGSQTMDYWGQGTSVTVSS
VL: DIQMTQSPASLSASVGETVTITCRTSGNIHNYLTWYQQKQGKSPQLLVYNAKTLADGVPSRFSGSGSGTQFSLKINSLQPEDFGSYYCQHFWSIMWTFGGGTKLEIK
notes: chimeric, huIgG1/k
B13 returned an EC50 with Human full length B7-H3 [4] of 810 pM.

B14: chAb14-CZ (antibody, IgG1, V domains shown)
VH: B13 VH
VL: B13 VL
modifications: synthon CZ on reduced interchain Cys
As to B14, in the test with Human full length B7-H3 [1], the EC50 was determined as 500 pM.

By EC50 is commonly meant the concentration giving half of the maximal effect. A high value points to a need for much substance. What is called Kd is the constant that tells how readily two partners part at equilibrium. Low readings indicate tighter binding, high ones weaker binding.

(Values after patent publication US20170355769A1 (AbbVie / Abbott, published 2017).)
